This is an account of results in PMC6969876, “NADPH biosensor-based identification of an alcohol dehydrogenase variant with improved catalytic properties caused by a single charge reversal at the protein surface” (AMB Express, 2020).

This test has as its target LbADH^K71E, variant of the NADPH-dependent alcohol dehydrogenase of Lactobacillus brevis, with N-terminal Strep-tag II (Lactobacillus brevis). Nature of the test: SEC; Superdex 200 increase 10/300 GL, buffer A (50 mM triethanolamine hydrochloride, 1 mM MgCl2, pH 7.0), 0.75 mL/min; apparent native mass from a calibration curve with carbonic anhydrase, bovine serum albumin, alcohol dehydrogenase and beta-amylase; affinity-purified protein loaded.

Broadly, the stoichiometry N is a count of units in the complex or per binding partner. As for “LbADH^K71E, variant of the NADPH-dependent alcohol dehydrogenase of Lactobacillus brevis, with N-terminal Strep-tag II (enzyme)”, the stoichiometry N was determined as 4.
